Measurements from patent US7125658B2, “Small protein that interacts with a ribonucleotide reductase subunit and uses thereof” (The Trustees of Columbia University in the City of New York, priority 1998, dated 2006).

Key:
[1] = biological target: T1, Recombinant yeast Rnr1 protein (large subunit of ribonucleotide reductase) (yeast (Saccharomyces cerevisiae), UniProt P21524 1-888); experiment: BIAcore SPR, BIAevaluation software, lower curves of FIG. 12A; kinetic fit (BIAevaluation), lower curves of FIG. 12A
T1 construct: It is in monomer/dimer/tetramer equilibrium depending on dTTP; also called yeast R1 protein
T1 sequence (looked up): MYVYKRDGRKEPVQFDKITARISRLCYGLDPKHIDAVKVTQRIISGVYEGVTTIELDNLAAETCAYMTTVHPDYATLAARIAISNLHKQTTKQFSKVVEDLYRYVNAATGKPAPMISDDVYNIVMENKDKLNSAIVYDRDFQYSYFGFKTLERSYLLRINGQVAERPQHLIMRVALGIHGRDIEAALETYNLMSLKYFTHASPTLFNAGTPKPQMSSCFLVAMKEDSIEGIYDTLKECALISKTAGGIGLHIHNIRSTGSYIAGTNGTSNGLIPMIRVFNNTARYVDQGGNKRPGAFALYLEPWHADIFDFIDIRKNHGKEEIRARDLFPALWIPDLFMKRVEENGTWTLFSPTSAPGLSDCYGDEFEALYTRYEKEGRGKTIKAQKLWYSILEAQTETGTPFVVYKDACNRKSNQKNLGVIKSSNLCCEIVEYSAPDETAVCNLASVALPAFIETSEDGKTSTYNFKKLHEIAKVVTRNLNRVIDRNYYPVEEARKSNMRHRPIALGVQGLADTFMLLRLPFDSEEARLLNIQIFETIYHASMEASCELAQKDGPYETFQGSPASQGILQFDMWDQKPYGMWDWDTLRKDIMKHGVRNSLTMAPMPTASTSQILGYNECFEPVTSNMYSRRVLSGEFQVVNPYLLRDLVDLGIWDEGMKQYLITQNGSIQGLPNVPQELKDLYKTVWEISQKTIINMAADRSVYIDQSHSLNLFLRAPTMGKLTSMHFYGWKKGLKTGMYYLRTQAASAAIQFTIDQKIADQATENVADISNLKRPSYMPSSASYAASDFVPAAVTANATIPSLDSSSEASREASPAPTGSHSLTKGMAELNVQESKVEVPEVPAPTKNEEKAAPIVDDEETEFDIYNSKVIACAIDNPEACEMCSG
Method: In this figure, the bulk effect response of around 60 RU has been subtracted.
BIAcore biosensor analysis. The interaction between Sml1p and either yeast Rnr1p or mouse R1 protein was studied by biosensor analysis using the BIAcore method (Biacore AB). The Sml1 protein was prepared in 10 mM sodium acetate, pH 5.2, at a concentration of 0.44 mg/ml; it was then immobilized on the dextran layer of the sensor chip as described previously for the mouse R2 protein (17). The ligand proteins were equilibrated with running buffer (10 mM Hepes-KOH, pH 7.4, 200 mM potassium acetate, 1 mM EDTA, 5 mM magnesium acetate and 0.05% Surfactant P20 (BIAcore). The interactions were studied at a constant temperature of 22° C. and a constant flow of 5 μl/min. Kinetics for the interaction of Sml1p with yeast Rnr1p was determined by allowing the immobilized Sml1p to interact with increasing concentrations of Rnr1p (18). The resonance unit (RU) is proportional to the mass, and 1 RU corresponds to a surface concentration of 1 pg of protein/mm² of the 100 nm thick dextran layer (19).
In control experiments, where the same series of Rnr1p solutions passed a sensor chip without immobilized Sml1p, a "bulk effect" gave a response of only about 60 RU. […] Calculating the equilibrium dissociation constant from these rate constants gave a K_0 of about 0.25 µM, which is close to the directly determined K_0.

yeast Rnr1p = biological target: T2, yeast Rnr1p (Saccharomyces cerevisiae, UniProt P21524); experiment: sucrose gradient centrifugation of Rnr1p with Sml1p; format: binding; settings: 500 μg Rnr1p, 90 μg Sml1 protein, 0.1 mM dTTP
T2 construct: made in house; host or cells: E. coli BL21 (DE3), pET3a
T2 sequence (P21524 1-888): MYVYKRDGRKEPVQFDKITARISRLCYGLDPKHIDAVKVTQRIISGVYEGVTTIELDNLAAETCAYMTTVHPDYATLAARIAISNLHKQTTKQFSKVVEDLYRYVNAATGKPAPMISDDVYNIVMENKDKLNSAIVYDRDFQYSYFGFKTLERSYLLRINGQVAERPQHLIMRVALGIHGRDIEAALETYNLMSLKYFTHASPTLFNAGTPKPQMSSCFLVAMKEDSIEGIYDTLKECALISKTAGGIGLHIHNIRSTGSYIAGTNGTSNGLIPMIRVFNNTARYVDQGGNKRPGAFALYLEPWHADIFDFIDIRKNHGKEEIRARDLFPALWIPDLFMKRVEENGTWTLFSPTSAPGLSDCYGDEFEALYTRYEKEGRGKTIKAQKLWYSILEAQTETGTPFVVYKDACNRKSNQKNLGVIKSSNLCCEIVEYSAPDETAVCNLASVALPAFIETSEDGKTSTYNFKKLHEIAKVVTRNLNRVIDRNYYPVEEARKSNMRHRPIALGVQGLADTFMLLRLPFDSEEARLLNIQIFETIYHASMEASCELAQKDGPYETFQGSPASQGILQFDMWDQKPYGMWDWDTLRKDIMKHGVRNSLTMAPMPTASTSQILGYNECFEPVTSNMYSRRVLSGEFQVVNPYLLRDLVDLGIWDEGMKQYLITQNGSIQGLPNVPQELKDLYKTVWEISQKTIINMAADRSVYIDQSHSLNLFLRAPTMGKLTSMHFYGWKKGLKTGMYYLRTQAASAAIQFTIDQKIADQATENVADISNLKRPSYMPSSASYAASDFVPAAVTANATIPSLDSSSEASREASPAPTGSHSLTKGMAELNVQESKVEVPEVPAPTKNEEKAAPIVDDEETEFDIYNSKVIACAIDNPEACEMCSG
Method: FIG. 11 Sucrose gradient centrifugation of yeast Rnr1p in the absence or in the presence of dTTP, with or without Sml1p. Sedimentation (from the right to the left) was performed as described in Materials and Methods. Catalase (s20,w=11.4 S) sedimented in fraction 14 (arrow). Thick line, Rnr1 protein sedimented alone without dTTP or Sml1p. The two peaks represent the dimer (fraction 21) and monomer (fraction 25) positions in the gradient. Hatched line, Rnr1p sedimented in the presence of dTTP. Most of the material now sedimented as tetramers (fraction 5) or dimers (fraction 21). Note that the small peak sedimenting at fraction 26 represents an impurity in the Rnr1p preparation (the band just below the R1 band in the gel insert). The sedimentation of this material is not affected by dTTP. […]
Sucrose gradient centrifugation. […] Aliquots of each fraction were removed for spectrophotometric assay of catalase activity (20); protein concentration as determined by the Bradford method (21); or SDS-PAGE analysis.
Interaction between yeast Rnr1 protein and Sml1 protein assayed by sucrose gradient centrifugation. […] To test if Sml1p binding to the Rnr1p might interfere with Rnr1p dimer formation and thereby inhibit RNR activity, we preincubated Rnr1p and Sml1p in the presence of the allosteric effector dTTP; we then analyzed the mixture on a sucrose gradient (FIG. 11). […]

B1: Recombinant yeast Sml1 protein (other)
chain: MQNSQDYFYAQNRCQQQQAPSTLRTVTMAEFRRVPLPPMAEVPMLSTQNSMGSSASASASSLEMWEKDLEERLNSIDHDMNNNKFGSGELKSMFNQGKVEEMDF
notes: Immobilized on the BIAcore chip in the biosensor experiments; also called YML058W product
koff [1]: 0.04 s⁻¹ | kon [1]: ~153000 M⁻¹ s⁻¹

B2: Sml1p: 104 amino acid yeast protein encoded by YML058w (SML1) that binds Rnr1 and inhibits ribonucleotide reductase; recombinant, expressed in E. coli (protein)
chain: MQNSQDYFYAQNRCQQQQAPSTLRTVTMAEFRRVPLPPMAEVPMLSTQNSMGSSASASASSLEMWEKDLEERLNSIDHDMNNNKFGSGELKSMFNQGKVEEMDF
effect on Rnr1p monomer/dimer equilibrium (yeast Rnr1p): did not influence the monomer/dimer equilibrium
